Consider three proteins from publication PMC7702303, “Biochemical and transcript level differences between the three human phosphofructokinases show optimisation of each isoform for specific metabolic niches” (Biochemical Journal, 2020).

Substrate in data set [1]: O=C(CO)[C@@H](O)[C@H](O)[C@H](O)COP(=O)(O)O
Briefly: ALDO-TIM-G3PDH enzyme-linked kinetic assay, PFK-P. Format: biochemical, human. The following applies: other: PFK-P; F6P titration, ATP 0.5 mM; n = 6; mean (SD); pH 7.4; 25.0 °C. On the procedure:
(§1) Recombinant human PFKs were expressed in PFK-deficient Saccharomyces cerevisiae and purified using the methods described previously, adapting earlier materials and protocols. Production of PFK intended for use in ATP titration experiments used 1 mM F6P as a tetramer stabilising agent in protein purification and storage buffers. Production of PFK intended for use in F6P titration experiments used 1 mM ATP as a tetramer stabilising agent in protein purification and storage buffers. Experimental details on the purification and characterisation procedures including figures showing SDS–PAGE gels of the highly pure PFKs used in the kinetic experiments described in this work have been recently published.
(§2) Assay buffer consisted of 50 mM TEA, 100 mM KCl, 10 mM MgCl2, 1 mM Tris(2-carboxyethyl)phosphine hydrochloride (TCEP), 10% glycerol, pH 7.4. Assay mix consisted of 5 units/ml glycerol-3-phosphate dehydrogenase (G3PDH, Sigma–Aldrich G6880), 2.5 units/ml aldolase (Sigma–Aldrich A2714), 25 units/ml triosephosphate isomerase (TIM, Sigma–Aldrich T6258), and 1.25 mM NADH. […] A SpectraMax M5 Multi-Mode Microplate Reader was used to measure A340nm at 13 s intervals for 10 min. […]
(§3) Time-dependent absorbance change was converted into rate of NADH oxidation (µM s^−1) or specific activity (µmol min^−1 mg protein^−1) using the Beer-Lambert law (molar extinction coefficient of NADH 6.22 mM^−1 cm^−1). […]

Data set [2] concerns the molecule itself. Briefly: SEC; size-exclusion chromatography of purified recombinant PFK isoforms, buffer and protein concentration not told in the main text (Supplementary Figure S2); tetramer to dimers.
Substrate in data set [3]: O=C(CO)[C@@H](O)[C@H](O)[C@H](O)COP(=O)(O)O
Nature of the data set: ALDO-TIM-G3PDH enzyme-linked kinetic assay, PFK-M. Format: biochemical, human. To be noted: other: PFK-M; F6P titration, ATP 0.5 mM; n = 6; mean (SD); pH 7.4; 25.0 °C. On the procedure: as §1, §2, §3

Substrate in data set [4]: O=C(CO)[C@@H](O)[C@H](O)[C@H](O)COP(=O)(O)O
Briefly: ALDO-TIM-G3PDH enzyme-linked kinetic assay, PFK-L. Format: biochemical, human. The following applies: other: PFK-L; F6P titration, ATP 0.5 mM; n = 6; mean (SD); pH 7.4; 25.0 °C. On the procedure: as §1, §2, §3

Values joined by “and” are separate entries in the source; they are usually repeats but may differ in a detail not shown here. Equal entries are not always repeated.

B1: human 6-phosphofructokinase-1-kinase, platelet isoform (PFK-P) (enzyme, UniProt Q01813 1-784, looked up)
chain: MDADDSRAPKGSLRKFLEHLSGAGKAIGVLTSGGDAQGMNAAVRAVVRMGIYVGAKVYFIYEGYQGMVDGGSNIAEADWESVSSILQVGGTIIGSARCQAFRTREGRLKAACNLLQRGITNLCVIGGDGSLTGANLFRKEWSGLLEELARNGQIDKEAVQKYAYLNVVGMVGSIDNDFCGTDMTIGTDSALHRIIEVVDAIMTTAQSHQRTFVLEVMGRHCGYLALVSALACGADWVFLPESPPEEGWEEQMCVKLSENRARKKRLNIIIVAEGAIDTQNKPITSEKIKELVVTQLGYDTRVTILGHVQRGGTPSAFDRILASRMGVEAVIALLEATPDTPACVVSLNGNHAVRLPLMECVQMTQDVQKAMDERRFQDAVRLRGRSFAGNLNTYKRLAIKLPDDQIPKTNCNVAVINVGAPAAGMNAAVRSAVRVGIADGHRMLAIYDGFDGFAKGQIKEIGWTDVGGWTGQGGSILGTKRVLPGKYLEEIATQMRTHSINALLIIGGFEAYLGLLELSAAREKHEEFCVPMVMVPATVSNNVPGSDFSIGADTALNTITDTCDRIKQSASGTKRRVFIIETMGGYCGYLANMGGLAAGADAAYIFEEPFDIRDLQSNVEHLTEKMKTTIQRGLVLRNESCSENYTTDFIYQLYSEEGKGVFDCRKNVLGHMQQGGAPSPFDRNFGTKISARAMEWITAKLKEARGRGKKFTTDDSICVLGISKRNVIFQPVAELKKQTDFEHRIPKEQWWLKLRPLMKILAKYKASYDVSDSGQLEHVQPWSV
notes: human phosphofructokinase, platelet isoform (PFK-P), recombinant; Active form is a tetramer in equilibrium with dimers
Turning to B1, in data set [1], the kcat was found to be 1.83 s⁻¹. Moreover, in data set [2], the “stoichiometry N” value was 4 and 2.

B2: human 6-phosphofructokinase-1-kinase, muscle isoform (PFK-M) (enzyme, UniProt P08237 1-780, looked up)
chain: MTHEEHHAAKTLGIGKAIAVLTSGGDAQGMNAAVRAVVRVGIFTGARVFFVHEGYQGLVDGGDHIKEATWESVSMMLQLGGTVIGSARCKDFREREGRLRAAYNLVKRGITNLCVIGGDGSLTGADTFRSEWSDLLSDLQKAGKITDEEATKSSYLNIVGLVGSIDNDFCGTDMTIGTDSALHRIMEIVDAITTTAQSHQRTFVLEVMGRHCGYLALVTSLSCGADWVFIPECPPDDDWEEHLCRRLSETRTRGSRLNIIIVAEGAIDKNGKPITSEDIKNLVVKRLGYDTRVTVLGHVQRGGTPSAFDRILGSRMGVEAVMALLEGTPDTPACVVSLSGNQAVRLPLMECVQVTKDVTKAMDEKKFDEALKLRGRSFMNNWEVYKLLAHVRPPVSKSGSHTVAVMNVGAPAAGMNAAVRSTVRIGLIQGNRVLVVHDGFEGLAKGQIEEAGWSYVGGWTGQGGSKLGTKRTLPKKSFEQISANITKFNIQGLVIIGGFEAYTGGLELMEGRKQFDELCIPFVVIPATVSNNVPGSDFSVGADTALNTICTTCDRIKQSAAGTKRRVFIIETMGGYCGYLATMAGLAAGADAAYIFEEPFTIRDLQANVEHLVQKMKTTVKRGLVLRNEKCNENYTTDFIFNLYSEEGKGIFDSRKNVLGHMQQGGSPTPFDRNFATKMGAKAMNWMSGKIKESYRNGRIFANTPDSGCVLGMRKRALVFQPVAELKDQTDFEHRIPKEQWWLKLRPILKILAKYEIDLDTSDHAHLEHITRKRSGEAAV
notes: human phosphofructokinase, muscle isoform (PFK-M), recombinant; Active form is a tetramer in equilibrium with dimers
As for B2, the kcat in data set [3] was 8.11 s⁻¹. The “stoichiometry N” value in data set [2] was 4.

B3: human 6-phosphofructokinase-1-kinase, liver isoform (PFK-L) (enzyme, UniProt P17858 1-780, looked up)
chain: MAAVDLEKLRASGAGKAIGVLTSGGDAQGMNAAVRAVTRMGIYVGAKVFLIYEGYEGLVEGGENIKQANWLSVSNIIQLGGTIIGSARCKAFTTREGRRAAAYNLVQHGITNLCVIGGDGSLTGANIFRSEWGSLLEELVAEGKISETTARTYSHLNIAGLVGSIDNDFCGTDMTIGTDSALHRIMEVIDAITTTAQSHQRTFVLEVMGRHCGYLALVSALASGADWLFIPEAPPEDGWENFMCERLGETRSRGSRLNIIIIAEGAIDRNGKPISSSYVKDLVVQRLGFDTRVTVLGHVQRGGTPSAFDRILSSKMGMEAVMALLEATPDTPACVVTLSGNQSVRLPLMECVQMTKEVQKAMDDKRFDEATQLRGGSFENNWNIYKLLAHQKPPKEKSNFSLAILNVGAPAAGMNAAVRSAVRTGISHGHTVYVVHDGFEGLAKGQVQEVGWHDVAGWLGRGGSMLGTKRTLPKGQLESIVENIRIYGIHALLVVGGFEAYEGVLQLVEARGRYEELCIVMCVIPATISNNVPGTDFSLGSDTAVNAAMESCDRIKQSASGTKRRVFIVETMGGYCGYLATVTGIAVGADAAYVFEDPFNIHDLKVNVEHMTEKMKTDIQRGLVLRNEKCHDYYTTEFLYNLYSSEGKGVFDCRTNVLGHLQQGGAPTPFDRNYGTKLGVKAMLWLSEKLREVYRKGRVFANAPDSACVIGLKKKAVAFSPVTELKKDTDFEHRMPREQWWLSLRLMLKMLAQYRISMAAYVSGELEHVTRRTLSMDKGF
notes: human phosphofructokinase, liver isoform (PFK-L), recombinant; Active form is a tetramer in equilibrium with dimers
For B3, in data set [4], the kcat came to 5.38 s⁻¹. Besides, the binding result in data set [2] was “binds”.
